# Publication PMC4456219
# B1: Vps24-2^92C (I92C single cysteine mutant of Vps24-2) (protein)
# chain: MDYIKKAIWGPDPKEQQRRIRSVLRKNGRNIEKSLRELTVLQNKTQQLIKKSAKKNDVRTVRLYAKELYQINKQYDRMYTSRAQLDSVRMKCDEAIRMNTLSNQMADSAGLMREVNSLVRLPQLRNTMIELEKELMKSGIISEMVDDTMESVGDVGEEMDEAVDEEVNKIVEQYTNEKFSQLQSTPQNLVSNAPIAETAMGIPEPIGAGSEFHGNPDDDLQARLNTLKKQT
# modifications: Cys92 activated as a mixed disulfide with DTNB
# Experiments:
# [1] = molecular target: MBP-Vps24-2-ssrA (Saccharomyces cerevisiae) (UniProt P36095)
# [2] = molecular target: mixed Vps4 hexamer of full-length Vps4^CF and Vps4^(CF 206C ΔMIT) (Saccharomyces cerevisiae) (UniProt P52917); assay: cross-linking
molecule,measurement,setting,value
ClpX (from UniProt P0A6H1 1-424) (enzyme),"HDX-MS: unfolded proportion of the MBP peptide 347-360 at 10, 30 and 60 s",[1],30%
B1,cross-linking efficiency relative to Vps24-2^136C,[2],60%
